Assay: Bioconversion of eugenol to vanillin: one-pot concurrent cascade EUGO + alkene cleavage oxygenase (5 mM scale)
Assay type: biochemical
Settings: Table 8b, EUGO FD-CFE 1 mg/mL, CO-0X FD-CFE 1 mg/mL, catalase 10 mg/mL, eugenol 5 mM
Protocol: Stock solutions of eugenol (100 mM) were prepared in ethanol or DMSO and stored at −20° C. Unless otherwise stated, the reaction mixtures (0.5 mL) were set up in 1.5 mL glass vials as follows: freeze-dried cell free extract of IECO/CO-XX (3 mg) and EUGO (0.5 mg) were dissolved in the reaction buffer (50 mM glycine-NaOH pH 9.0) containing sodium ascorbate (1 mM), FeSO4 (1 mM) and bovine liver catalase (5 mg, Sigma Aldrich C40). The reaction was initiated by the addition of 0.025 mL eugenol stock (final concentration 5 mM), then incubated at 30° C. and 120 rpm overnight (rotary shaker). The final content of cosolvent was 5% v/v. To improve oxygenation, the vials were placed horizontally. At certain time points, samples (0.2 mL) were quenched with methanol (0.4 mL) and the mixture was centrifuged at 20238 g for 5-10 mins. Finally, the supernatant was analysed by HPLC.
EUGO (0.5 mg CFE), CO-25 (3 mg CFE) and catalase (5 mg, Sigma product #C40) were dissolved in 50 mM Glycine-NaOH pH 9.0 or Tris-HCl pH 8.0 together with FeSO4 (1 mM) and sodium ascorbate (1 mM). Note that the buffer content of the freeze-dried biocatalyst prep was not considered for the assembling of the reaction. The reaction was started by the addition of 5 mM eugenol from a 20× stock in ethanol. The reactions—performed in glass vials—were then incubated at 30° C. and 120 rpm (25 mm shaker). Finally, samples of the reaction mixture were diluted with MeOH and analyzed by HPLC at 280 and 340 nm.

Molecule	Product distribution after 24 hours 2a (%) (pH 8.0)	Product distribution after 24 hours 3a (%) (pH 8.0)	Product distribution after 24 hours 5a (%) (pH 8.0)	Product distribution after 24 hours 2a (%) (pH 9.0)	Product distribution after 24 hours 3a (%) (pH 9.0)	Product distribution after 24 hours 5a (%) (pH 9.0)
CO-17: alkene cleavage oxygenase, Coniochaeta pulveracea, SEQ ID NO: 82 (protein, listed as Coniochaeta pulveracea) MAHIFDLAPEVSLPDEPIYKDGKLHRPNHVQFPQTPVFASMNKPSRFEGTILSLEHTGIIPPEINGTFFRVQPDHRFPPMFEDDIHFNGDGSVTAIRIFDGKVDFRQRYVHTERYKAETKARRSLFGRYRNPWTDNESVKGVIRTASNTNVFFWRGMLLATKEDGPPYAMDPVTLETYGRYDFEGQILSPTFTAHPKFDPRTGEMVCFAYETGGDGADCSREVMVWTLDKDGKKVSERWFEAPFAGMIHDCGLSENWLVLPLTPIKMDLERMKRGGNKFAWDPKEDQVYGLVPRRGDGEVKWFRGENAFHGHVAGCYENAQGHVVIDLTVADGNVFFWFPPDGEEQGQFAKRNKLSSPTHRWILDPSLPNNARITPALVWPTNGEFSRIDDRWTTRKYKHFWLAKVDPSRPYDFAKCGPPAGGLFNCLGHYTWDLDNELATGQEDVYFAGPTCTFQEPTFIPKGDKEGEGWLIALVNHLDVLRNDVVILDAQNLAKGPVCTIHLPLKLKLGLHGNWVDWRDIEDWTKRRQEDGEVGPVQVATEMLPWQKAFWEKEKEKNGNGVEGPNINGTNGANGTNGVNGSSH	73.1%	7.8%	19.1%	65.8%	11.8%	22.5%
CO-20: alkene cleavage oxygenase, Pseudomonas frederiksbergensis, SEQ ID NO: 120 (protein, listed as Pseudomonas frederiksbergensis) MTHPFPQTPEFSGALYAPSRVEAEVFDLEVEGTLPDSIRGAFYQVAPDPQYPPMLGNDIFFNGDGMVSAFNFADGKVSMRRRYVKTDRLMAQRREGRSLNGVYRNVFTNDPLAAKNNTTANTSVVAHNGVLLALKEDALPWAMDLETLETLGEWSFDGQIESATFTAHPKLDPVTGNLLAFSYEAKGDGTPDLAYFELSPDGKLLHQIWFQAPYAAMVHDFAVTEHYVVFPLIPLTVDVERMKNGGQHFQWQPDLPQLFAVVPRNGHAEDVRWFKGPKDGFQGHTLNAFDEDDKVYVDMPVTGGNIFYFFPQADGYVPPPETLAASLMRWTFDLTSTQDDIQPQPLTDYPCEFPRCDDRYIGRKYEHGFVLAFDPERPYNPANGPIPFQFFNLLARVNLKTGATDAWFPGDSGCFQEPIFIPRAPDAQEADGYVVALLNLIAEGRSELVVLDSRDMASGPIARIKVPFRLRMSLHGCWVPSKK	59.4%	23.6%	17.0%	57.8%	22.0%	20.2%
CO-22: alkene cleavage oxygenase, Pseudomonas kilonensis, SEQ ID NO: 128 (protein, listed as Pseudomonas kilonensis) MTIPFPQTSEFSGALYTPSRVEAELFDLEVEGTLPAEIRGAFYQVAPDPQYPPMLGTDIFFNGDGMVTGFYFANGKVSMRRRYVKTDRLMAQRREGRSLNGVYRNLYTNDPLAAKNNTTANTTVIPHNGVLLALKEDALPWAMDLETLETLGEWTFDGQIKAATFTAHPKRDPATGNLLAFSYEAKGDGTPDIAYFEISPDGKLLHEIWFQAPYAAMVHDFAVTERYVVFPLIPLTVDVERMKNGGPHFQWQPDLPQLFAVVPRNGNAQDVRWFKGPKDSFQGHTLNAFDEDGKVYVDMPVTGGNVFYFFPQADGYVPPPETLAASLMRWTFDLSSPQDEVEPQPLTEYPCEFPRCDDRYIGRKYQHGFLLAFDPERPYNPANGPIPFQFFNLLVHLNLKTGSTDAWFPGDSGCFQEPIFIPRSADAEEADGYVVALLNLIAEGRSELVVLDSRDMAGGPIARIRIPFRMRMSLHGCWAPSD	69.4%	15.0%	15.6%	63.2%	16.8%	20.0%

Other lines, results leading:

Product distribution after 24 hours 2a (%) (pH 8.0)	Product distribution after 24 hours 3a (%) (pH 8.0)	Product distribution after 24 hours 5a (%) (pH 8.0)	Product distribution after 24 hours 2a (%) (pH 9.0)	Product distribution after 24 hours 3a (%) (pH 9.0)	Product distribution after 24 hours 5a (%) (pH 9.0)	Molecule
56.4%	26.4%	17.2%	45.3%	32.4%	22.3%	CO-13: alkene cleavage oxygenase, Actinobacteria bacterium, SEQ ID NO: 64 (protein, listed as Actinobacteria bacterium) MVRFPPPKDPFDAPMRVEADIRGVQVTQGEVPEHLDGIYYRCVSDRQWPSYVENDLELFNSDGMIISFRFHKGRVDFKSRYVRTPRFVAEEKAGRALFGAYRNPFDDDPSVAGISRGLANTNVFYHGGKLYASKEDSPPILLDPITLETIGEYDFEGALTSRTSTAHPKFDPITGEMVFFGYEAKGPGTPDIAYYEADASGRIIHEAWLEAPYTSMVHDWAVTQNFVVFPIIPLRSDIEWIKQGRSYFQWDPYEDVYLGVMPRKGTAKDLRWYRGSNRFASHIMGAYDDGRYIYIDTPVGQTNYFPWFPDITGAPYDPERSKGYLSRWTIDTQGESDGFTETRLCDLPGEFPRMDDRQETLPYHWGIMLLTDGPGRVAPGGGFRWLMGIDLKTGRKQIYYPGDNCTLGEAIFVPAAPDAPPGVGYVFTVVARRAEMRSDLVILDAQHIDGEPVCTLSLPMRIRMGVHGNWVSAEELARRTA
68.3%	13.5%	18.2%	61.2%	16.5%	22.2%	CO-15: alkene cleavage oxygenase, Herbaspirillum sp., SEQ ID NO: 74 (protein, listed as Herbaspirillum sp.) MNIRFSNNDFKSFEAPMRAEIELTGLEVVQGKVPKNLEGGFFRLIGDRKWPAFVDNDVFMLNEDGMASCFYFKDGKVDFRMRYVRTPRFVAEEKAGRALFGHYRNPFSDDPSVAGLSRGTANVTMLMHGGKLLALKEDSPAIELNPFTLETIGEYDWNGKVTAKAITAHPKIDAKTGELVFFGYCAAGPATRDIAYYEADSEGNVTHETWFHAPYTCMVHDIMVTQNYVVFPITPLRHELEWIKRSEPAFKWDPHESVYLGVLPRKGRGDQIRWFKGPNQCHGHTVGAYDDGRYIYADNTFSKRSFFHFFPNVDGSQFKPTDAMPYMKRVVIDMERSDNSFVEQPLFEYPCELPRIDTRFETLPYSFATMNLLDVPGQERVGRGFQWIATMDVNGAKPSKILYAGDNCSIGEPQFVPAHDNAAEGDGYIMTVVGRHEQMRSELLILDASDINAPPVATVALPFRLRSTGHGYWYGGRQLRGETNFPGAW
76.0%	4.3%	19.7%	71.0%	5.5%	23.5%	CO-16: alkene cleavage oxygenase, Valsa mali, SEQ ID NO: 76 (protein, listed as Valsa mali) MAHIFDIAPAVKGYASGRLAKPGDATTFPDTDVFRGINKPSRFEGDIFDLEVTGTIPKDIDGTFYRVQPDHRFPPLFEDDIHFNGDGSVTAIRISNGHADFKQRYVQTDRYKAETAARRSLFGRYRNPWTDNESVKGVIRTASNTNVTFWRGILLASKEDGPPFAMDPVTLETLGRYDFEGQIKAPTFTAHPKFDPDTGEMLCFAYEAGGDGNDGSCDVVVWTVDADGKKTEECWYKAPFAGMIHDMAVSKNFVVLPLTPLKVNMDRMKKGGEKFAWDPKEDQYYGLVPRRNAKPEDIRWFRADNGMAPFLKTLSTHCADTPASSAFQGHIAGCYENEEGHVVVDLTVADGNVFFWWPPDDGTAIPPGKKPNQLSSTTTRWILDPKAETNTRITPAYVWPTNGEFSRIDDRFVTKKYKHFWQAKVDPTRPYDFAKCGPPAGGLFNCLGHYTWSPDNPLAKGEEDVFFFGPTATVQEPSFIPKDEGGEGDGYLIALVNHLDVLRNDIAVFDAQHLAGGPLAVLHLPLKLKLGLHGNFVDHRDIEAWQRRRDAKGDVGPVKVATEPLPWQKSFWDRRQDGQNGGLNGTH
69.0%	13.7%	17.3%	67.0%	13.6%	19.4%	CO-23: alkene cleavage oxygenase, Pseudomonas viciae, SEQ ID NO: 130 (protein, listed as Pseudomonas viciae) MTIPFPQTPEFSGALYTPSRVEAEVFDLEIEGVLPASIGGTFYQVAPDPQYPPMLGNDIFFNGDGVVSRFNFANGKVSMRRRYVKTDRLLAQRREGRSLNGVYRNVYTNDRLAAKNNTTANTTVIPHNGVLLALKEDALPWAMDLDTLETLGEWTFDGQIKSATFTAHPKLDPVTGNLLACSYEAKGDGTPDLAYFEISPDGKLLHEIWFQAPYAAMVHDFAVTERYVVFPLIPLTVDVERMKNGGPHFQWQPDLPQLFAVVPRNGNAQDVRWFKGPKDGFQGHTLNAFDEDGKVYVDMPVTGGNIFYFFPQADGYVPPPETLAASLMRWTFDLNSALDEVEPQPLTDYPCEFPRCDDRYIGRKYQHGFLLAFDPERPYNPANGPIPFQFFNLLVHLNLKTGITDAWFPGDSGCFQEPIFIPRSADAEEADGYVVALLNLIAEGRSELVVLDSRDMASGPIARIRIPFRMRMSLHGCWTADPN

Reference: patent US20260176659A1, “IMPROVED METHOD FOR THE PRODUCTION OF NATURAL VANILLIN” (BASE SE, priority 2022, published 2026)
